Test results taken from publication PMC11252808 (Proceedings of the National Academy of Sciences of the …, 2024).
Where no end group is shown, it is not given here. [ ]: non-standard residue; d: D form. pS = N[C@@H](COP(=O)(O)O)C(=O)O

Target: T1, recombinant SUFU (UniProt Q9UMX1 1-484)
T1 sequence (looked up): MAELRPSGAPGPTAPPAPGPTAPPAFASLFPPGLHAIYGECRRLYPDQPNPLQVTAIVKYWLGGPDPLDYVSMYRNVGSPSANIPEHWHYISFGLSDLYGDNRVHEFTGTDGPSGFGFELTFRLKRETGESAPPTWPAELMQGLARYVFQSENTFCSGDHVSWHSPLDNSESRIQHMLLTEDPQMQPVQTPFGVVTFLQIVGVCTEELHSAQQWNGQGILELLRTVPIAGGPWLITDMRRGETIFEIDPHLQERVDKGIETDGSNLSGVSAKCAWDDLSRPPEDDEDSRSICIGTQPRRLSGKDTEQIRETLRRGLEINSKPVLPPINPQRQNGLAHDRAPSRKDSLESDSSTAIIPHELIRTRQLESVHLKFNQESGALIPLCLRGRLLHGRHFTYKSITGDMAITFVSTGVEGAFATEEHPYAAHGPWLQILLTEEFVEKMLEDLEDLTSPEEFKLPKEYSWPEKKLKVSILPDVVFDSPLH
Test: SPR

Kd: 5.08 µM
B1: phosphorylated GLI3 peptide (phospho-GLI3^S313_(309–345)) (peptide, UniProt P10071 309-345, looked up)
peptide: MIRT[pS]PNSLVTILNNSRSSSSASGSYGHLSASAISPA
